Source: patent US7115556B2, “Use of anti-prolactin agents to treat proliferative conditions” (Greenville Hospital System, priority 1998, dated 2006)

Columns and labels:
[1] = test system: T-47D human breast cancer cells; test: TUNEL assay, T-47D; assay type: cell-based
Description: (§1) Cell Culture. T-47D cells obtained from ATCC were grown in RPMI 1640 (phenol red free), supplemented with 10% FBS (GIBCO BRL). BT-474 cells were grown in RPMI 1640 medium (phenol red free) supplemented with 10% FBS and ATCC recommended supplements. MCF-7 cells were grown in DMEM medium (phenol red free), supplemented with 10% FBS. The cells were grown at 37° C. in a humid atmosphere in the presence of 5% CO2. The MDA-MB-134 cells were grown in Leibovitz's L-15 medium supplemented with 20% FBS and grown in CO2 free atmosphere. The breast cancer cells were trypsinized (0.02% Trypsin—EDTA) and grown in their respective media (phenol red free) supplemented with 10% CSS (Charcoal stripped serum) for a week. Subsequently the cells were trypsinized again and plated onto an 8 chambered slide system (Lab Tek II) at a confluence of 60–70% per chamber. The next day treatments were performed on the breast cancer cells using their respective media(phenol red free), supplemented with 1% CSS. The MDA-MB-134 VI cells were grown in phenol red containing medium, but with the same serum conditions as the other breast cancer cells.
(§2) Terminal deoxynucleotidly transferase mediated dUTP nick end labeling (TUNEL) assay. Nicks of the fragmented DNA are labeled at their 3-OH ends. The fluorescein-labeled dUTP is incorporated at the 3-OH ends by using the enzyme terminal deoxynucleotidyl transferase. After the assigned period of treatment the chambers were dismantled as per the manufacturer's instructions and the TUNEL assay (Apoptosis detection system, Fluorescein- Promega) was performed as per the manufacturer's instructions. The slide was examined under a FITC filter using an Olympus IX 70 microscope system.

MCF-7 cells = test: TUNEL assay, MCF-7; assay type: cell-based, human; conditions: 250 ng G129R, 24 hours
Description: as §1
(§3) Terminal deoxynucleotidly transferase mediated dUTP nick end labeling (TUNEL) assay. Nicks of the fragmented DNA are labeled at their 3-OH ends. The fluorescein-labeled dUTP is incorporated at the 3-OH ends by using the enzyme terminal deoxynucleotidyl transferase. […]

[2] = test system: tyrosine phosphorylation of STAT proteins in T47-D cells; test: Tyrosine phosphorylation of STAT proteins in T47-D cells (Example 10); assay type: cell-based, human
Description: Tyrosine Phosphorylation of STAT Proteins in T47-D cells. This assay is designed to examine the effects of HPRL and hPRL-G129R on signal transduction using T47-D cells as model target cells. Briefly, T47-D cells were plated in 12-well plates. After pre-incubation in serum-free medium for 2–3 hours, cells were exposed to various concentrations of hPRL or hPRL-G129R or a combination of hPRL and hPRL-G129R in serum-free medium. The cells were incubated for 15 min at 37° C., washed once with PBS, and lysed in 200 μl lysis buffer (50 mM Tris-HCl, pH 6.8, 1% SDS, 1% β-mecaptoethanol, 0.1M DTT, 5% sucrose, 100 μM sodium orthovanadate, and 0.6% bromophenol blue). Thirty microliters of cell lysate are then subjected to 4–12.5% SDS-PAGE using the Bio-Rad Protein II system. After electrophoresis, the gels were transferred to a Hybond-ECL membrane (Amersham, Ill.) at 100 volts constant voltage for 2 hrs. Blots were incubated in a blocking solution of 4% BSA (Boehringer Mannheim, Ind.) in rinsing buffer (10 mM Tris-HCl pH 7.5, 75 mM NaCl, 0.1% Tween 20, 1 mM EDTA) for 2 hrs and subsequently washed twice with rinsing buffer for 15 min. Blots were incubated with horseradish peroxidase (HRP)-conjugated antiphosphotyrosine antibody PY20 (Amersham, Ill.) at a concentration of 0.1 μg/ml in the blocking solution for 1 hr. […] Blots were then exposed to X-ray film and developed using standard procedures (Kodak, Rochester, N.Y.).

T47-D cells = test: Co-culture with L-G129R cells, T47-D; assay type: cell-based, human; conditions: T47-D co-cultured with L-G129R cells
Description: The co-culture experimental set-up provides a sustained presence of biologically active hPRL-G129R, thereby resulting in a maximal response in these tumor cells.

hPRLR = biological target: T1, hPRLR (Homo sapiens, UniProt P16471); conditions: Goffin et al., 1996; cited from earlier work
T1 sequence (P16471 25-622): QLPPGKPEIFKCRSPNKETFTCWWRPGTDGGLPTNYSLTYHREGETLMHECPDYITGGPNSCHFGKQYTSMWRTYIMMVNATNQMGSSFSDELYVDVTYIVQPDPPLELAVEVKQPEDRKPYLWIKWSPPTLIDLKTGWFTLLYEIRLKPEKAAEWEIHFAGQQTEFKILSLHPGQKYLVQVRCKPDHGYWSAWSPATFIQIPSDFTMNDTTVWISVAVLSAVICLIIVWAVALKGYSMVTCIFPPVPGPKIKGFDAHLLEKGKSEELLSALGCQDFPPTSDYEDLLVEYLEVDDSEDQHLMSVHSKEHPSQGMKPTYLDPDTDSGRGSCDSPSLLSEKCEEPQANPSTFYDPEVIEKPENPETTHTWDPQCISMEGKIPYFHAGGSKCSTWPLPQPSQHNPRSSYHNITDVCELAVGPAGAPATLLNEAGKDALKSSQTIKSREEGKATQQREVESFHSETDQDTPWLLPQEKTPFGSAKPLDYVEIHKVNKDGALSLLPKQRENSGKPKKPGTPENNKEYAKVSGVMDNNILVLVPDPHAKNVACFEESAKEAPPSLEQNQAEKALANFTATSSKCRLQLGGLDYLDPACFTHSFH

BT-474 cells = test: TUNEL assay, BT-474; assay type: cell-based, human
Description: as §1, §2

[3] = test system: T47D human breast cancer cells; test: Cell proliferation assay, cell counting; assay type: cell-based; conditions: FIGS. 5A-B
Description: Cell proliferation assays. hPRLA was tested for its ability to inhibit breast cancer cell proliferation in tissue culture. The human breast cancer cells were grown in corresponding culture media according to ATCC recommendations. Cells were maintained at 37° C. in a humidified atmosphere of 5% CO2 in air. The assay conditions were essentially as described by Ginsburg and Vonderharr (1995, Cancer Res. 55:2591–2595). For individual growth experiments, cells were plated in 12 well culture plates at a density of approximately 2×10^4 /ml, 1 ml/ well. Cells were then allowed to attach for one day (T-47D, MCF-7, HTB19, and HTB20 cells, except for HTB 123, which is a suspension cells), then the overlying media was removed and changed to serum-free conditions with media containing ITS^+ (insulin-transferring-selenium-BSA-linoleic acid culture supplement; Collaborative Research Bedford, Mass.). Varying concentrations of hPRL alone or in combination with hPRLA were introduced. After an additional three days in culture, cells were harvested after brief trypsinization and counted in a cell counter.

MDA-MB-134 cells = test: TUNEL assay, MDA-MB-134; assay type: cell-based, human; conditions: 250 ng G129R, 24 hours
Description: as §1, §3

B1: hPRL-G129R: variant of human prolactin having a substitution of the glycine at position 129 with an arginine residue; prolactin receptor antagonist (protein)
chain: LPICPGGAARCQVTLRDLFDRAVVLSHYIHNLSSEMFSEFDKRYTHGRGFITKAINSCHTSSLATPEDKEQAQQMNQKDFLSLIVSILRSWNEPLYHLVTEVRGMQEAPEAILSKAVEIEEQTKRLLERMELIVSQVHPETKENEIYPVWSGLPSLQMADEESRLSAYYNLLHCLRRDSHKIDNYLKLLKCRIIHNNNC
DNA fragmentation after 2 hours of treatment ([1]; 50 ng/ml, 2 hours): apparent
apoptosis at physiological concentration ([1]; 50 ng/ml, 24 h): apoptosis occurs
induction of apoptosis DNA fragmentation ([1]; 250 ng G129R, 24 hours): induced apoptosis
competition between G129R and hPRL on DNA fragmentation ([1]; 1:1 ratio (125 ng/ml each)): able to compete with hPRL
apoptosis (DNA fragmentation), dose response ([1]; 24 h treatment): induced apoptosis in a dose dependent manner
induction of apoptosis DNA fragmentation (MCF-7 cells): induced apoptosis
inhibition of STAT protein phosphorylation induced by hPRL ([2]; 5:1 ratio (500 ng/ml hPRL-G129R, 100 ng/ml hPRL)): completely inhibited
stimulating STAT protein phosphorylation ([2]; T47-D cells, hPRL-G129R alone (100 ng/ml, FIG. 13)): not active
block of signal transduction (STAT phosphorylation) induced by hPRL ([2]; added together with hPRL): block the signal transduction induced by hPRL in a dose dependent manner
inhibition of cell proliferation in co-culture (T47-D cells): Complete inhibition
effect in PRLR reporter gene assay (hPRLR): antagonist effect
induction of apoptosis DNA fragmentation (BT-474 cells; 250 ng G129R, 24 hours): induced apoptosis
apoptosis and hPRL competition, as in T-47D (BT-474 cells; BT-474 cells): same results
proliferation of T47D cells relative to untreated control cultures [3]: comparable inhibitory effect
induction of apoptosis DNA fragmentation (MDA-MB-134 cells): induced apoptosis
